The data set concerns the target mAb0077(OA).

Sequence of mAb0077(OA) (chain, as listed by the source, chain 1 of 3): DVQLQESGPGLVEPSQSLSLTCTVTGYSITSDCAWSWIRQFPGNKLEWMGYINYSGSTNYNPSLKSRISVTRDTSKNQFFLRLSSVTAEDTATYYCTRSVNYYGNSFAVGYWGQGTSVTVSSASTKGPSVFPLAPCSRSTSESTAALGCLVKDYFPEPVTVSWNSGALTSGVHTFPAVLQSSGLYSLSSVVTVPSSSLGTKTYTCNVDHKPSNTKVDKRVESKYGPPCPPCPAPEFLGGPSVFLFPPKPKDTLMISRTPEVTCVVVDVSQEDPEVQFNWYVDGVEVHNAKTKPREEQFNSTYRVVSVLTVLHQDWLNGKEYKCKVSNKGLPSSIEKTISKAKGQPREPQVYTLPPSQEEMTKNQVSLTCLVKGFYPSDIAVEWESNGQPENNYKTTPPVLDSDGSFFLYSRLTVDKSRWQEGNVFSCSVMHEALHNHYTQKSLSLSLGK
Sequence of mAb0077(OA) (chain, as listed by the source, chain 2 of 3): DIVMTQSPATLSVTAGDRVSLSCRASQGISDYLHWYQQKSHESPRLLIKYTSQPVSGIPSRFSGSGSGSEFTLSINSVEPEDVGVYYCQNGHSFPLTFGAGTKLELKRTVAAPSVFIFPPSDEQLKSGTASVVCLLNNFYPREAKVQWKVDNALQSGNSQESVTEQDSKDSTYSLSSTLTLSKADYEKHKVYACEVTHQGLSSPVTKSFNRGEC
Sequence of mAb0077(OA) (chain, as listed by the source, chain 3 of 3): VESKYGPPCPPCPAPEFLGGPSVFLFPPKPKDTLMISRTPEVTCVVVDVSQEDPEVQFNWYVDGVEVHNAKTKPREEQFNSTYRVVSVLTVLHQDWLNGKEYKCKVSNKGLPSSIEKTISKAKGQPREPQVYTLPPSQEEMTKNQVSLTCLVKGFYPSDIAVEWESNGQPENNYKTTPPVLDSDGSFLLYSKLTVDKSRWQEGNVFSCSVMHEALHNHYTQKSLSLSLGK

B1: recombinant human activated Factor VII (FVIIa) (protein)
chain 1: ANAFLEELRPGSLERECKEEQCSFEEAREIFKDAERTKLFWISYSDGDQCASSPCQNGGSCKDQLQSYICFCLPAFEGRNCETHKDDQLICVNENGGCEQYCSDHTGTKRSCRCHEGYSLLADGVSCTPTVEYPCGKIPILEKRNASKPQGR
chain 2: IVGGKVCPKGECPWQVLLLVNGAQLCGGTLINTIWVVSAAHCFDKIKNWRNLIAVLGEHDLSEHDGDEQSRRVAQVIIPSTYVPGTTNHDIALLRLHQPVVLTDHVVPLCLPERTFSERTLAFVRFSLVSGWGQLLDRGATALELMVLNVPRLMTQDCLQQSRKVGDSPNITEYMFCAGYSDGSKDSCKGDSGGPHATHYRGTWYLTGIVSWGQGCATVGHFGVYTRVSQYIEWLQKLMRSEPRPGVLLRAPFP
In the case of B1, the Km of FX activation by FVIIa/PS:PC with 200 nM antibody is 0.089 µM, the Km of FX activation by TF-FVIIa with 200 nM antibody stood at 0.0039 µM and the kcat of FX activation by FVIIa/PS:PC with 200 nM antibody was found to be 0.00026 s⁻¹.

The values are drawn from US20220064329.
